The stoichiometry N is a count of units in the complex or per binding partner. As a reminder, the Kd is the equilibrium constant for the complex coming apart.

Test [1] concerns the target CtpA_(F105R) mutant (Helicobacter pylori G27). The test can be described thus: crystal structure; sitting-drop vapour diffusion; wild type: 100 mM bis-Tris-HCl pH 6.5, 100 mM magnesium chloride, 25% PEG 3350, 16 °C; F105R: Morpheus condition A8.
Test [2] concerns the target Recombinant HP1076 protein (Helicobacter pylori). The test can be described thus: MST; CtpA_(S300A) diluted from 165 μM to 5.04 nM, mixed 1:1 with 45 nM RED-NHS-labelled HP1076; Monolith NT.115, 70% excitation power, 40% MST power, 20 °C.
The target of test [3] is CtpA_(S300A/K325A/Q329A) triple mutant (CtpATM) (Helicobacter pylori G27). In words: cryo-EM structure; 2 mg/ml protein on Quantifoil R1.2/1.3 grids, Titan Krios 300 kV.
Test [4] deals with CtpAΔN46 (residues 47-454), wild-type H. pylori CtpA (Helicobacter pylori G27). In words: AUC; sedimentation velocity, absorbance, 28,000 rpm, 16 °C, c(s) model in SEDFIT.
For test [5] the target is unchanged. The test can be described thus: cryo-EM structure; 2 mg/ml protein on Quantifoil R1.2/1.3 grids, Titan Krios 300 kV.
For test [6] the target is unchanged. In words: crystal structure; sitting-drop vapour diffusion; wild type: 100 mM bis-Tris-HCl pH 6.5, 100 mM magnesium chloride, 25% PEG 3350, 16 °C; F105R: Morpheus condition A8.

Turning to CtpA_(F105R) mutant (enzyme), in test [1], the stoichiometry N was found to be 6.

In the case of “CtpA_(S300A) (inactive mutant of CtpAΔN46) (enzyme)”, the Kd in test [2] is 15.4 µM.

As for “CtpA_(S300A/K325A/Q329A) triple mutant (CtpATM) (enzyme)”, the stoichiometry N in test [3] was determined as 6.

As to “CtpAΔN46 (residues 47-454), wild-type H. pylori CtpA (enzyme)”, the stoichiometry N in test [4], in test [5] and in test [6] was 6 each time.

(Values after article PMC12749690.)
